Assay [1] concerns the target feline FcRn (FCN-F82W3, Acrobiosystems) (feline). Briefly: SPR Carterra, IgG coupled, pH 6.0.
For assay [2] the target is unchanged. Briefly: SPR Carterra, IgG coupled, pH 7.4.
The target of assay [3] is feline FcRn (IgG receptor FcRn large subunit p51 with feline beta-2-microglobulin) (feline). The assay is described as follows: SPR Biacore 8K+, IgG on C1 chip, pH 5.9, 1:1 kinetic fit. For orientation: SPR reads the build-up and loss of mass on a sensor chip optically.
For assay [4] the target is unchanged. Briefly: SPR Biacore 8K, Fc captured by SASA tag on BSA, pH 6.0.

Values joined by “and” are separate entries in the source; they are usually repeats but may differ in a detail not shown here. Equal entries are not always repeated.

Broadly, the Kd is the concentration at which binding is half-saturated. Lower therefore signals higher affinity. Usually koff stands for the first-order rate constant of dissociation. One may read the kon as a measure of how fast the partners come together. Lower therefore signals slow association.

B1: anti-NGF feline IgG1a, Fc variant S434Y, S426L (antibody, part only; not given: anti-NGF variable domains, light chain, not shown: another chain or arm of the molecule; small tags and cut ends)
Fc: PPEMLGGPSIFIFPPKPKDTLSISRTPEVTCLVVDLGPDDSDVQITWFVDNTQVYTAKTSPREEQFNSTYRVVSVLPILHQDWLKGKEFKCKVNSKSLPSPIERTISKAKGQPHEPQVYVLPPAQEELSRNKVSVTCLIKSFHPPDIAVEWEITGQPEPENNYRTTPPQLDSDGTYFVYSKLSVDRSHWQRGNTYTCLVSHEALHYHHTQKSLTQSPGK
As to B1, in assay [1], the Kd turned out to be 3 nM, the koff is 0.0044 s⁻¹ and the kon was 1.48e+06 M⁻¹ s⁻¹. For the same molecule, in assay [2], the Kd is 185 nM, the koff amounted to 0.118 s⁻¹ and the kon was determined as 636000 M⁻¹ s⁻¹.

B2: anti-NGF feline IgG1a, Fc variant S252Y, Q311V (antibody, part only; not given: anti-NGF variable domains, light chain, not shown: another chain or arm of the molecule; small tags and cut ends)
Fc: PPEMLGGPSIFIFPPKPKDTLYISRTPEVTCLVVDLGPDDSDVQITWFVDNTQVYTAKTSPREEQFNSTYRVVSVLPILHVDWLKGKEFKCKVNSKSLPSPIERTISKAKGQPHEPQVYVLPPAQEELSRNKVSVTCLIKSFHPPDIAVEWEITGQPEPENNYRTTPPQLDSDGTYFVYSKLSVDRSHWQRGNTYTCSVSHEALHSHHTQKSLTQSPGK
In the case of B2, in assay [1], the Kd was 3.8 nM, the koff was determined as 0.00405 s⁻¹ and the kon amounted to 1.06e+06 M⁻¹ s⁻¹. Also, in assay [2], the Kd was found to be 306 nM, the koff is 0.0528 s⁻¹ and the kon came out at 173000 M⁻¹ s⁻¹.

B3: anti-NGF feline IgG1a, Fc variant S428Y, Q311V, T286E (antibody, part only; not given: anti-NGF variable domains, light chain, not shown: another chain or arm of the molecule; small tags and cut ends)
Fc: PPEMLGGPSIFIFPPKPKDTLSISRTPEVTCLVVDLGPDDSDVQITWFVDNTQVYEAKTSPREEQFNSTYRVVSVLPILHVDWLKGKEFKCKVNSKSLPSPIERTISKAKGQPHEPQVYVLPPAQEELSRNKVSVTCLIKSFHPPDIAVEWEITGQPEPENNYRTTPPQLDSDGTYFVYSKLSVDRSHWQRGNTYTCSVYHEALHSHHTQKSLTQSPGK
In assay [3], B3 displayed a Kd of 6.11 nM.

B4: anti-NGF feline IgG1a, Fc variant S428Y, Q311V, E380T (antibody, part only; not given: anti-NGF variable domains, not shown: another chain or arm of the molecule; small tags and cut ends)
Fc: PPEMLGGPSIFIFPPKPKDTLSISRTPEVTCLVVDLGPDDSDVQITWFVDNTQVYTAKTSPREEQFNSTYRVVSVLPILHVDWLKGKEFKCKVNSKSLPSPIERTISKAKGQPHEPQVYVLPPAQEELSRNKVSVTCLIKSFHPPDIAVTWEITGQPEPENNYRTTPPQLDSDGTYFVYSKLSVDRSHWQRGNTYTCSVYHEALHSHHTQKSLTQSPGK
In assay [3], B4 yielded a Kd of 20.1 nM.

B5: wild-type feline IgG1a Fc (CH2 and CH3 domains) with SASA tag (Fc fusion, part only; not given: SASA tag, not shown: another chain or arm of the molecule; small tags and cut ends)
Fc: PPEMLGGPSIFIFPPKPKDTLSISRTPEVTCLVVDLGPDDSDVQITWFVDNTQVYTAKTSPREEQFNSTYRVVSVLPILHQDWLKGKEFKCKVNSKSLPSPIERTISKAKGQPHEPQVYVLPPAQEELSRNKVSVTCLIKSFHPPDIAVEWEITGQPEPENNYRTTPPQLDSDGTYFVYSKLSVDRSHWQRGNTYTCSVSHEALHSHHTQKSLTQSPGK
On to B5, for which, in assay [4], the Kd was 1190 nM and 1640 nM; the koff is 0.374 s⁻¹ and 0.195 s⁻¹; the kon is 314000 M⁻¹ s⁻¹ and 119000 M⁻¹ s⁻¹.

B6: anti-NGF feline IgG1a, Fc variant S252W (antibody, part only; not given: anti-NGF variable domains, light chain, not shown: another chain or arm of the molecule; small tags and cut ends)
Fc: PPEMLGGPSIFIFPPKPKDTLWISRTPEVTCLVVDLGPDDSDVQITWFVDNTQVYTAKTSPREEQFNSTYRVVSVLPILHQDWLKGKEFKCKVNSKSLPSPIERTISKAKGQPHEPQVYVLPPAQEELSRNKVSVTCLIKSFHPPDIAVEWEITGQPEPENNYRTTPPQLDSDGTYFVYSKLSVDRSHWQRGNTYTCSVSHEALHSHHTQKSLTQSPGK
B6 had a Kd in assay [3] of 4.01 nM.

B7: anti-NGF feline IgG1a, Fc variant S428Y, L309V (antibody, part only; not given: Anti-NGF variable domains, not shown: another chain or arm of the molecule; small tags and cut ends)
Fc: PPEMLGGPSIFIFPPKPKDTLSISRTPEVTCLVVDLGPDDSDVQITWFVDNTQVYTAKTSPREEQFNSTYRVVSVLPIVHQDWLKGKEFKCKVNSKSLPSPIERTISKAKGQPHEPQVYVLPPAQEELSRNKVSVTCLIKSFHPPDIAVEWEITGQPEPENNYRTTPPQLDSDGTYFVYSKLSVDRSHWQRGNTYTCSVYHEALHSHHTQKSLTQSPGK
With B7, in assay [1], the Kd came to 13.2 nM, the koff was 0.0112 s⁻¹ and the kon was 847000 M⁻¹ s⁻¹. In assay [3], the Kd was 35.3 nM.

B8: anti-NGF feline IgG1a, Fc variant S428Y, Q311V (antibody, part only; not given: Anti-NGF variable domains, not shown: another chain or arm of the molecule; small tags and cut ends)
Fc: PPEMLGGPSIFIFPPKPKDTLSISRTPEVTCLVVDLGPDDSDVQITWFVDNTQVYTAKTSPREEQFNSTYRVVSVLPILHVDWLKGKEFKCKVNSKSLPSPIERTISKAKGQPHEPQVYVLPPAQEELSRNKVSVTCLIKSFHPPDIAVEWEITGQPEPENNYRTTPPQLDSDGTYFVYSKLSVDRSHWQRGNTYTCSVYHEALHSHHTQKSLTQSPGK
In assay [1], B8 showed a Kd of 10.9 nM, a koff of 0.00977 s⁻¹ and a kon of 893000 M⁻¹ s⁻¹. This molecule also yielded a Kd in assay [3] of 32.2 nM.

B9: anti-NGF feline IgG1a, Fc variant T286E, S428R (antibody, part only; not given: anti-NGF variable domains, not shown: another chain or arm of the molecule; small tags and cut ends)
Fc: PPEMLGGPSIFIFPPKPKDTLSISRTPEVTCLVVDLGPDDSDVQITWFVDNTQVYEAKTSPREEQFNSTYRVVSVLPILHQDWLKGKEFKCKVNSKSLPSPIERTISKAKGQPHEPQVYVLPPAQEELSRNKVSVTCLIKSFHPPDIAVEWEITGQPEPENNYRTTPPQLDSDGTYFVYSKLSVDRSHWQRGNTYTCSVRHEALHSHHTQKSLTQSPGK
Consider B9, for which, in assay [1], the Kd came out at 6.9 nM, the koff is 0.00648 s⁻¹ and the kon worked out at 939000 M⁻¹ s⁻¹. In assay [2], this molecule showed a Kd of 12.3 nM, a koff of 0.113 s⁻¹ and an on-rate (kon) of 9.17e+06 M⁻¹ s⁻¹.

B10: feline IgG1a Fc variant S434H (CH2-CH3) with SASA tag (Fc fusion, part only; not given: SASA tag, not shown: another chain or arm of the molecule; small tags and cut ends)
Fc: PPEMLGGPSIFIFPPKPKDTLSISRTPEVTCLVVDLGPDDSDVQITWFVDNTQVYTAKTSPREEQFNSTYRVVSVLPILHQDWLKGKEFKCKVNSKSLPSPIERTISKAKGQPHEPQVYVLPPAQEELSRNKVSVTCLIKSFHPPDIAVEWEITGQPEPENNYRTTPPQLDSDGTYFVYSKLSVDRSHWQRGNTYTCSVSHEALHHHHTQKSLTQSPGK
Consider B10, for which, in assay [4], the Kd is 316 nM and 444 nM; the koff was 0.0761 s⁻¹ and 0.0888 s⁻¹; the kon is 241000 M⁻¹ s⁻¹ and 200000 M⁻¹ s⁻¹.

B11: anti-NGF feline IgG1a, Fc variant S252Y, Q311K (antibody, part only; not given: anti-NGF variable domains, light chain, not shown: another chain or arm of the molecule; small tags and cut ends)
Fc: PPEMLGGPSIFIFPPKPKDTLYISRTPEVTCLVVDLGPDDSDVQITWFVDNTQVYTAKTSPREEQFNSTYRVVSVLPILHKDWLKGKEFKCKVNSKSLPSPIERTISKAKGQPHEPQVYVLPPAQEELSRNKVSVTCLIKSFHPPDIAVEWEITGQPEPENNYRTTPPQLDSDGTYFVYSKLSVDRSHWQRGNTYTCSVSHEALHSHHTQKSLTQSPGK
For B11, in assay [1], the Kd was determined as 5.6 nM, the koff was 0.00779 s⁻¹ and the kon was 1.39e+06 M⁻¹ s⁻¹. For the same molecule, in assay [2], the Kd came to 46.9 nM, the koff came out at 0.112 s⁻¹ and the kon worked out at 2.39e+06 M⁻¹ s⁻¹.

B12: anti-NGF feline IgG1a, Fc variant S428Y, L309V, E380T (antibody, part only; not given: anti-NGF variable domains, light chain, not shown: another chain or arm of the molecule; small tags and cut ends)
Fc: PPEMLGGPSIFIFPPKPKDTLSISRTPEVTCLVVDLGPDDSDVQITWFVDNTQVYTAKTSPREEQFNSTYRVVSVLPIVHQDWLKGKEFKCKVNSKSLPSPIERTISKAKGQPHEPQVYVLPPAQEELSRNKVSVTCLIKSFHPPDIAVTWEITGQPEPENNYRTTPPQLDSDGTYFVYSKLSVDRSHWQRGNTYTCSVYHEALHSHHTQKSLTQSPGK
With B12, the Kd in assay [3] worked out at 20.6 nM.

B13: anti-NGF feline IgG1a, Fc variant S428Y (antibody, part only; not given: anti-NGF variable domains, not shown: another chain or arm of the molecule; small tags and cut ends)
Fc: PPEMLGGPSIFIFPPKPKDTLSISRTPEVTCLVVDLGPDDSDVQITWFVDNTQVYTAKTSPREEQFNSTYRVVSVLPILHQDWLKGKEFKCKVNSKSLPSPIERTISKAKGQPHEPQVYVLPPAQEELSRNKVSVTCLIKSFHPPDIAVEWEITGQPEPENNYRTTPPQLDSDGTYFVYSKLSVDRSHWQRGNTYTCSVYHEALHSHHTQKSLTQSPGK
In assay [1], B13 came in with a Kd of 25.6 nM, a koff of 0.0184 s⁻¹ and a kon of 718000 M⁻¹ s⁻¹. Also, the Kd in assay [3] is 71.8 nM.

The record behind these values is patent publication US20250304650A1.
